Laboratory results as given in patent US20250092124A1 (YUNNAN BAIYAO GROUP, published 2025).
Substitutions are numbered along the chain they refer to. Where two headings read alike, the source gives them in different places.

B1: A3 (murine anti-34G9) (antibody, V domains shown)
VH: QVQLKESGPGILQPSQTLSLTCSFSGFSLNTAGMTVGWIRQPSGKGLEWLAHIWWNDDKYYNPALKSRLTISKDTSNNQIFLEIASVVTADTATYYCTRIATMNYAMDYWGQGTSVTVSS
VL: DIVMTQAPASLAVSLGQRATISCRASQSVSTSSFSYMHWYQQKPGQPPKLLIKYASNLESGVPARFSGSGSGTDFTLNIHPVEEEDTATYYCQHSWEIPYTFGGGTKLEIK
notes: Purified murine hybridoma antibody
B2: A6 (murine anti-53D10) (antibody, V domains shown)
VH: QVTLKESGPGIVQPSQPFRLTCTFSGFSLSTSGIGITWIRQPSGKGLEWLATIWWDDDNRYNPSLKSRLTVSKDTSNNQAFLNIITVETADTAIYYCVQSAWDWFAYWGQGTLVTVSA
VL: DIVMTQSQKFMSTSVGDRVSVTCKASQNVGTNVAWYQQKSGQSPKALIYSASYRNSGVPDRFTGSGSGTDFTLTISNVESEDLAEYFCQQYNSHPVTFGGGTKLEIK
notes: as for B1
B3: A5 (murine anti-50G3) (antibody, V domains shown)
VH: QVTLKESGPGILKPSQTLSLTCSFSGFSLSTSGMGVGWIRQPSGKGLEWLAHIWWNDDKYYNPSLKSHLTISKDTSRNQVFLMITSVDTADTATYYCARGAYDFFDYWGQGTTLTVSS
VL: DIVMTQAQNFMSTSVGDRVSVTCKASQNVDTNVAWYQQKPGQSPKALIYSASYRYSGVPDRFTGSGSGTDFTLTISNVQSDDLADYFCQQYNTYPYTFGGGTKLEIK
notes: as for B1
B4: A4 (murine anti-2A2) (antibody, V domains shown)
VH: QVTLKESGPGILQPSQTLSLTCSFSGFSLTTSGMGVDWIRQSSGKGLEWLAHIYWDDDKRYNPSLKSRLTISKDTSSNQVFLKITSVDTADTATYYCARRAWDAMDYWGQGTSFTVSS
VL: B3 VL with N9K, S26R, D30G, D81E, D85E, T93S
notes: as for B1
B5: AV380-mIgG1 (antibody)
heavy: EVLLQQSGPELVKPGASVKIPCKASGYTFTDYNMDWVKQSHGKSLEWIGQINPNNGGIFFNQKFKGKATLTVDKSSNTAFMEVRSLTSEDTAVYYCAREAITTVGAMDYWGQGTSVTVSSAKTTPPSVYPLAPGSAAQTNSMVTLGCLVKGYFPEPVTVTWNSGSLSSGVHTFPAVLQSDLYTLSSSVTVPSSTWPSETVTCNVAHPASSTKVDKKIVPRDCGCKPCICTVPEVSSVFIFPPKPKDVLTITLTPKVTCVVVDISKDDPEVQFSWFVDDVEVHTAQTQPREEQFNSTFRSVSELPIMHQDWLNGKEFKCRVNSAAFPAPIEKTISKTKGRPKAPQVYTIPPPKEQMAKDKVSLTCMITDFFPEDITVEWQWNGQPAENYKNTQPIMDTDGSYFVYSKLNVQKSNWEAGNTFTCSVLHEGLHNHHTEKSLSHSPGK
light: DIQMTQSPASLSASVGETVTITCRTSENLHNYLAWYQQKQGKSPQLLVYDAKTLADGVPSRFSGSGSGTQYSLKINSLQPEDFGSYYCQHFWSSPYTFGGGTKLEIKRADAAPTVSIFPPSSEQLTSGGASVVCFLNNFYPKDINVKWKIDGSERQNGVLNSWTDQDSKDSTYSMSSTLTLTKDEYERHNSYTCEATHKTSTSPIVKSFNRNEC
notes: also called positive control antibody AV380-mIgG1
B6: Ponsegromab (antibody, V domains shown)
VH: QVQLVQSGAEVKKPGSSVKVSCKASGYTFSSYNIDWVRQAPGQGLEWMGGINPIFGTAFYNQKFQGRVTITADESTSTAYMELSSLRSEDTAVYYCAREAITTVGAMDHWGQGTLVTVSS
VL: EIVLTQSPATLSLSPGERATLSCRTSQSVHNYLAWYQQKPGQAPRLLIYDASTRADGIPARFSGSGSGTDFTLTISSLEPEDFAVYYCQQFWSWPWTFGQGTKVEIKR
B7: A1 (murine anti-53E5) (antibody, V domains shown)
VH: QVQLKESGPGILQPSQTLSLTCSFSGFSLSTSGMGVGWIRQPSGKGLEWLAHILWDDVKRYNPALKSRLTISKDSSNSQIFLKIASVDTADTATYYCVQMAWDWFAYWGQGTLVTVSA
VL: DIVMTQAQKFMSTSVEDRVSVTCKASQNVDTNVAWYQQKPGQSPKALIYSASYRSSGVPDRFTGSGSGTDFTLTISNVQSEDLAEYFCQQYHSYPTFGGGTKLEIK
notes: as for B1
B8: A2 (murine anti-53A8) (antibody, V domains shown)
VH: B7 VH with L54R, S75T, N77S, V98A
VL: B7 VL with E16G, N32D, S55Y, S76T, Q89H, H92N
notes: Purified murine hybridoma antibody; also called murine antibody 53A8

Tests used:
[1] = target: T1, fusion protein comprising the extracellular region of human GDF15 protein and human IgG1-FC (human, UniProt Q99988 197-308, limits assumed); test: ELISA, human GDF15-hIgG1 Fc coated, HRP anti-mouse IgG
T1 construct: extracellular domain
T1 sequence (looked up): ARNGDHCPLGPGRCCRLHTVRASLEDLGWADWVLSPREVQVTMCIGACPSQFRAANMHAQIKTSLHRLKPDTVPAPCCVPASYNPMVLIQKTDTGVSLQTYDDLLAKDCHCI
Procedure: (§1) A fusion protein comprising the extracellular region of human GDF15 protein (Genbank accession number NM_004864.3) and human IgG1-FC (Genbank accession number CAC20454.1) was diluted to 1 ng/ml with coating solution, followed by adding to ELISA plate at 50 μl/well and incubating at 4° C. overnight. The solution in the wells was discarded and the plate was washed 3 times with washing solution, each time for 3-5 minutes, and dried by tapping. 200 μl of blocking solution was added to each well and incubated at 4° C. overnight. The plate was washed 3 times with washing solution, and the coated plate may be stored at −20° C. or 4° C. for future use.
(§2) The antibodies to be tested (purified antibodies from hybridoma, see Table 1), positive control antibody AV380-mIgG1 (its sequence is from Aveo Oncology; see SEQ ID NO. 1 and SEQ ID NO. 2 for its heavy chain and light chain variable regions, respectively; see SEQ ID NO. 3 and SEQ ID NO. 4 for its heavy chain and light chain constant regions, respectively) and blank control (PBS) were added to the wells. […] The wells were incubated at 37° C. for 1 hour, washed, and dried via tapping. Then the enzyme-labeled secondary antibody, horseradish peroxidase-labeled goat anti-mouse IgG (SIGMA, catalog number A9044-2 ml) was added to each well, at a dilution of 1:10000, 100 μl/well. The wells were incubated at 37° C. for 2 hours, washed, and dried via tapping. 100 μl of freshly prepared developing solution TMB was added to each well and incubated at 37° C. for 30 minutes.
(§3) 2 mol/L H₂SO₄ was added to terminate the reaction, and the OD values were read on enzyme-linked immunosorbent reader. The results were shown in Table 1-1, Table 1-2 and FIGS. 1-1 and 1-2.

[2] = target: T2, fusion protein comprising the extracellular region of monkey GDF15 protein and human IgG1-FC (monkey (cyno); human, UniProt G7PWZ3 197-308, limits assumed); test: ELISA, monkey GDF15-hIgG1 Fc coated, HRP anti-mouse IgG
T2 construct: extracellular domain; also called cynoGDF15
T2 sequence (looked up): T1 sequence (looked up) with H6R, R21H, A54E, T63M, S64N, I112V
Procedure: as §2
(§4) The experiment was performed as detailed in Example 2, except that the fusion protein in Example 2 was replaced with a fusion protein comprising the extracellular region of monkey GDF15 protein (Genbank accession number EHH29815.1) and human IgG1-FC (Genbank accession number CAC20454.1). The results were shown in Table 2-1, Table 2-2 and FIGS. 2-1 and 2-2.

[3] = target: T3, GDF15-HIS (ACROBiosystems, CAT #: GD5-H5149) (human, UniProt Q99988 197-308); test: BLI (ForteBio Octet), antibody immobilised, GDF15 200-6.25 nM
T3 construct: Bought protein; also called GDF15 (ACROBiosystems, GD5-H5149); human GDF15; not shown: His tag
T3 sequence (looked up): T1 sequence (looked up)

GDF15-mFC protein [4] = target: T4, GDF15-mFC protein (human; mouse, UniProt Q99988 197-308); test: blocking ELISA, GFRAL-hIgG1 Fc coated (competitor), GDF15-mFC 20 ng/well mixed with antibody
T4 construct: extracellular domain;domain: IgG2a-FC; also called GDF15-mFc fusion protein
T4 sequence (looked up): T1 sequence (looked up)
Procedure: as §1, with “of GFRAL” for “of human GDF15”, “number NM_207410.2)” for “number NM_004864.3)”, “[…]” for “1 ng/ml”, “dried via” for “dried by”, “well followed by incubating” for “well and incubated”
(§5) The antibodies to be tested, positive control antibody AV380-mIgG1 and blank control (PBS) were added to the wells. […] At the same time, GDF15-mFC protein (GDF15: Genbank accession number NM_004864.3; mFC: Genbank accession number AAH31470.1) was added at 20 ng/well and mixed with the antibodies to be tested. The wells were incubated at 37° C. for 1 hour, washed, and dried via tapping. Then the enzyme-labeled secondary antibody, horseradish peroxidase-labeled goat anti-mouse IgG (SIGMA, catalog number A9044-2 ml) was added to each well, at a dilution of 1:10000, 50-100 μl/well. The wells were incubated at 37° C. for 2 hours, washed, and dried via tapping. 100 μl of freshly prepared developing solution TMB was added to each well and incubated at 37° C. for 30 minutes. 2 mol/L H₂SO₄ was added to terminate the reaction, and the OD value was obtained on an enzyme-linked immunosorbent reader.

[5] = target: T1, fusion protein comprising the …; test: ELISA, human GDF15-hIgG1 Fc coated, HRP anti-mouse IgG; remark: listed apart in the source
Procedure: as §1, §2, §3

[6] = target: T2, fusion protein comprising the …; test: ELISA, monkey GDF15-hIgG1 Fc coated, HRP anti-mouse IgG; remark: listed apart in the source
Procedure: as §2, §4

GDF15-mFC protein [7] = target: T4, GDF15-mFC protein; test: blocking ELISA, GFRAL-hIgG1 Fc coated (competitor), GDF15-mFC 20 ng/well mixed with antibody; remark: listed apart in the source
Procedure: as §1, with “of GFRAL” for “of human GDF15”, “number NM_207410.2)” for “number NM_004864.3)”, “[…]” for “1 ng/ml”, “dried via” for “dried by”, “well followed by incubating” for “well and incubated”
as §5

cynoGDF15-mFC = target: T5, cynoGDF15-mFC (monkey (cyno); mouse, UniProt G7PWZ3 197-308); test: ELISA, cynoGDF15-mFC coated
T5 construct: also called monkey GDF15 (cynoGDF15)
T5 sequence (looked up): T1 sequence (looked up) with H6R, R21H, A54E, T63M, S64N, I112V
Procedure: The experiment was performed as detailed in Example 2, except that the coating protein was cynoGDF15-mFC (GDF15: Genbank accession number EHH29815.1; mFC: Genbank accession number AAH31470.1), and the antibodies to be tested (the humanized antibodies), negative control antibody (hIgG1), and positive control antibodies Ponsegromab and AV380-hIgG1 were added to each well of the coated plate.

Binder | EC50 [1] | EC50 [2] | Kd [3] | koff [3] | kon [3] | IC50 (GDF15-mFC protein [4]) | EC50 [5] | EC50 [6] | IC50 (GDF15-mFC protein [7]) | EC50 (cynoGDF15-mFC) | OD450.Max (cynoGDF15-mFC)
B1 | 0.109 µg/mL | 0.157 µg/mL | 0.0895 nM | 7.2e-05 s⁻¹ | 805000 M⁻¹ s⁻¹ | 0.0916 µg/mL |  |  |  |  | 
B2 |  |  | 0.0972 nM | 0.000217 s⁻¹ | 2.24e+06 M⁻¹ s⁻¹ |  | 0.0602 µg/mL | 0.0555 µg/mL | 0.213 µg/mL |  | 
B3 |  |  | 0.162 nM | 0.000328 s⁻¹ | 2.02e+06 M⁻¹ s⁻¹ |  | 0.0556 µg/mL | 0.077 µg/mL | 0.232 µg/mL |  | 
B4 | 0.046 µg/mL | 0.0827 µg/mL | 0.146 nM | 0.000214 s⁻¹ | 1.47e+06 M⁻¹ s⁻¹ | 0.0898 µg/mL |  |  |  |  | 
B5 | 0.0296 µg/mL | 0.0258 µg/mL | 0.097 nM | 0.000117 s⁻¹ | 1.2e+06 M⁻¹ s⁻¹ | 0.14 µg/mL | 0.0313 µg/mL | 0.0146 µg/mL | 0.198 µg/mL |  | 
B6 |  |  |  |  |  |  |  |  |  | 0.0697 µg/mL | 1.07 OD450
B7 |  |  | 0.085 nM | 0.000194 s⁻¹ | 2.29e+06 M⁻¹ s⁻¹ |  | 0.0455 µg/mL | 0.0454 µg/mL | 0.186 µg/mL |  | 
B8 |  |  | 0.14 nM | 0.000318 s⁻¹ | 2.28e+06 M⁻¹ s⁻¹ |  | 0.0378 µg/mL | 0.0677 µg/mL | 0.205 µg/mL |  | 
